Consider one protein from publication doi:10.1101/2022.03.11.483938v2.

Substrate in data set [1]: Nc1ncnc2c1ncn2[C@H]1C[C@H](O)[C@@H](COP(=O)(O)O)O1
As to the kind of experiment: purified protein. The settings on record: constant hydrolysis rate.

Substrate in data set [2]: Nc1ncnc2c1ncn2[C@@H]1O[C@H](COP(=O)(O)O)[C@@H](O)[C@H]1O
As to the kind of experiment: purified protein. The settings on record: hydrolysis rate gradually decreased under the selected conditions.

B1: SiE5NT (ecto-5'-nucleotidase) (Serendipita indica DSM 11827) (protein)
chain: KVDSLVSERALQKRFVDANGNYNVTIVHTNDVHAHLDQWRAGRGTDCTPGSECISGYARIKQKVSELRQSIQDPIFLNAGDEFQGTLFFTYYGGEKISYAINEVGYDVFTLGNHEFDRGQGELAAFLKNLTFPVVCANFKTNDTAMNALNIQPYTIIEKHQLGIIGVITPDTKGTSSGAGPGTEFSDPVQAVQKAVDELQAKNITRIIALTHIGYDKDIELAQKTKGVDLIVGGHSHTLLGNFTNAMGSYPTTAKNLDGEEVFIVTSYRWGEILGKMNIAFDASGKIVSYEGEPLRLTNTTQQDPKLQAEVNEWRQPFDAMAQVVVGTSSVVLDQSICQFSECTLGNVITDAMYEYRKNAGGNVDFALINSGGIRASISEGTVTQGDILTSFPFMNGVVDLTWTGKQLLDIFEGVVSKYSTLSHHATTSFIQVSKQVKFSWNPNNVNQTRLITLEIGGQQVDVNKNYTMVTLDFLASNGDYLWGTRTDFAALDTLDVVLASYFKAHSPVGASIEGRITNSTSTTQQLPGKGSSGGSGGASALIVSGLSAGMMLLAGMMLV
With B1, in data set [1], the Km was determined as 361.6 µM and the kcat came to 11.9 s⁻¹. For the same protein, in data set [2], the Km is given as 15.9 µM and the catalytic constant (kcat) worked out at 1.1 s⁻¹.

A word on the Km: it is the substrate concentration at which the rate is half of its maximum. The term kcat denotes the number of substrate molecules converted per active site and unit of time at saturation.
